Measurements as given in patent publication US20160311912A1 (RINAT NEUROSCIENCE, published 2016).
Numbering of substitutions follows the chain as printed.

B1: H3-C10 (antibody, V domains shown)
VH: QVQLVQSGAEVKKPGASVKVSCKASGYTFTDFSVHWVRQAPGQGLEWMGWINTETDETSYADDFKGRVTMTRDTSTSTVYMELSSLRSEDTAVYYCVKSLYWSYGPPDYWGQGTTVTVSS
VL: DIQMTQSPSSLSASVGDRVTITCRASQNIRTAVVWYQQKPGKAPKLLIYLATNRHSGVPSRFSGSGSGTDFTFTISSLQPEDIATYYCLQHWTYPFSFGGGTKLEIK
B2: H2-C8 (antibody, V domains shown)
VH: B1 VH with D56R, E57G, L100R, Y101G
VL: B1 VL
B3: H2-A11 (antibody, V domains shown)
VH: B1 VH with T55Y, E57F, L100R, Y101G
VL: B1 VL
B4: H3-H9 (antibody, V domains shown)
VH: B1 VH with L100R, Y101W
VL: B1 VL
B5: H2-A8 (antibody, V domains shown)
VH: B1 VH with T55F, E57F, L100R, Y101G
VL: B1 VL
B6: H2-F10 (antibody, V domains shown)
VH: B1 VH with T53L, T55F, L100R, Y101G
VL: B1 VL
B7: H2-E7 (antibody, V domains shown)
VH: B1 VH with I51Y, T53L, L100R, Y101G
VL: B1 VL
B8: H3-F5 (antibody, V domains shown)
VH: B1 VH with Y101F
VL: B1 VL
B9: H2-F11 (antibody, V domains shown)
VH: B1 VH with T55F, E57Y, L100R, Y101G
VL: B1 VL
B10: FF2-H2WT H3RY (antibody, V domains shown)
VH: B1 VH with L100R
VL: B1 VL with R24Q, T52S, S97T, L104V
B11: FF2-H2WT (antibody, V domains shown)
VH: B1 VH
VL: B1 VL with R24Q, T52S, S97T, L104V
B12: FF2-H2RG (antibody, V domains shown)
VH: B1 VH with D56R, E57G
VL: B1 VL with R24Q, T52S, S97T, L104V
B13: FF2-H3RY (antibody, V domains shown)
VH: B1 VH with T55Y, E57F, L100R
VL: B1 VL with R24Q, T52S, S97T, L104V
B14: FF2 (antibody, V domains shown)
VH: B1 VH with T55Y, E57F
VL: B1 VL with R24Q, T52S, S97T, L104V
B15: H2-A11-H3-2 (antibody, V domains shown)
VH: B1 VH with T55Y, E57F, Y101F
VL: B1 VL
B16: H2-A11-H3-4 (antibody, V domains shown)
VH: B1 VH with T55Y, E57F, L100R, Y101W
VL: B1 VL
B17: H2-E7-H3-4 (antibody, V domains shown)
VH: B1 VH with I51Y, T53L, L100R, Y101W
VL: B1 VL
B18: H2-C8-H3-3 (antibody, V domains shown)
VH: B1 VH with D56R, E57G
VL: B1 VL
B19: H2-E7-H3-3 (antibody, V domains shown)
VH: B1 VH with I51Y, T53L
VL: B1 VL
B20: H2-C8-H3-4 (antibody, V domains shown)
VH: B1 VH with D56R, E57G, L100R, Y101W
VL: B1 VL
B21: H2-A11-H3-1 (antibody, V domains shown)
VH: B1 VH with T55Y, E57F, K98E
VL: B1 VL
B22: H2-A11-H3-3 (antibody, V domains shown)
VH: B1 VH with T55Y, E57F
VL: B1 VL
B23: H2-E7-H3-2 (antibody, V domains shown)
VH: B1 VH with I51Y, T53L, Y101F
VL: B1 VL
B24: H2-C8-H3-2 (antibody, V domains shown)
VH: B1 VH with D56R, E57G, Y101F
VL: B1 VL
B25: mAb4 (antibody, V domains shown)
VH: QVQLVQSGAEVKKPGASVKVSCKASGYTFTSSLIHWVRQAPGQGLEWMGYINPYNDGTKYNEKFKGRVTMTRDTSTSTVYMELSSLRSEDTAVYYCARMDYGNLWYFDVWGQGTLVTVSS
VL: EIVLTQSPATLSLSPGERATLSCRASENIYYSLAWYQQKPGQAPRLLIYNANSLEDGIPARFSGSGSGTDFTLTISSLEPEDFAVYYCKQAYDVPFTFGGGTKVEIK
B26: mAb1 (antibody, V domains shown)
VH: QIQLVQSGPELKKPGETVKISCKASGYTFTDFSIHWVKQAPGKGLKWMGWINTETDESTYADDFKGRFAFSLETSASTAYLQINNLKNEDTATYFCVKSRGWTYGPPDYWGQGTTLTVSS
VL: DIVMTQSQKFMSASVGDRVSITCKASQNVRTAVVWFQQKPGQSPNTLIYLASNRHSEVPDRFTGSGSGTDFTLTISNVQSEDLADYFCLQHWTYPFTFASGTKLEIK
B27: anti-glucagon receptor antagonist antibody mAb5 (antibody, V domains shown)
VH: B1 VH with L100R
VL: DIQMTQSPSSLSASVGDRVTITCQASQNIRTAVVWYQQKPGKAPKLLIYLASNRHSGVPSRFSGSGSGTDFTFTISSLQPEDIATYYCLQHWTYPFTFGGGTKVEIKR
notes: Fluorescence-labeled in the yeast display experiment
B28: mAb2 (antibody, V domains shown)
VH: B1 VH with L100R, Y101G
VL: B1 VL

Molecular target: T1, glucagon receptor (target of the KD / T½ of Tables 1A, 1B and 2B) (Homo sapiens (Human), UniProt P47871 26-136)
T1 construct: not shown: Human Fc carrier (and any linker) of the ECD-Fc fusion
T1 sequence (P47871 26-136 limits assumed): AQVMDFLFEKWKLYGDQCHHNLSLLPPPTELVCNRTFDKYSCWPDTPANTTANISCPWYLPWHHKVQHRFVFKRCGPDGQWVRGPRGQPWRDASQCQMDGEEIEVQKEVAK
Assay: not stated; 25° C.

Row | T½ [h] | Binder
1 | 0.0613 | B1
2 | 0.344 | B2
3 | 0.438 | B3
4 | 0.0377 | B4
5 | 0.346 | B5
6 | 0.36 | B6
7 | 0.228 | B7
8 | 0.04 | B8
9 | 0.296 | B9

Molecular target: T1, glucagon receptor (target of the KD / …)
Assay: not stated (column of Table 1B)

Row | Kd [pM] | Binder
10 | 224 | B10
11 | < 200 | B11
12 | 187 | B12
13 | < 125 | B13
14 | 171 | B14

Molecular target: T1, glucagon receptor (target of the KD / …)
Assay: not stated; 37° C.

Row | T½ [h] | Binder
15 | 8.53 | B15
16 | 6.36 | B16
17 | 7.37 | B17
18 | 12.4 | B18
19 | 14.9 | B19
20 | 5.3 | B20
21 | 4.19 | B21
22 | 17.2 | B22
23 | 7.94 | B23
24 | 6.89 | B24

Molecular target: T1, glucagon receptor (target of the KD / …)
Assay: not stated; 37° C. (entry printed a second time)

Row | T½ [h] | Binder
25 | 6.36 | B16
26 | 12.4 | B18
27 | 6.89 | B24

Molecular target: T1, glucagon receptor (target of the KD / …)
Assay: not stated (column of Table 1A)

Row | Kd [pM] | T½ [min] | Binder
28 | 10200 |  | B25
29 | 640 |  | B26
30 | 224 |  | B27
31 |  | 5.75 | B28

Molecular target: human glucagon receptor on stably transfected CHO cells (human, UniProt P47871 26-477)
Sequence (P47871 26-477 limits assumed): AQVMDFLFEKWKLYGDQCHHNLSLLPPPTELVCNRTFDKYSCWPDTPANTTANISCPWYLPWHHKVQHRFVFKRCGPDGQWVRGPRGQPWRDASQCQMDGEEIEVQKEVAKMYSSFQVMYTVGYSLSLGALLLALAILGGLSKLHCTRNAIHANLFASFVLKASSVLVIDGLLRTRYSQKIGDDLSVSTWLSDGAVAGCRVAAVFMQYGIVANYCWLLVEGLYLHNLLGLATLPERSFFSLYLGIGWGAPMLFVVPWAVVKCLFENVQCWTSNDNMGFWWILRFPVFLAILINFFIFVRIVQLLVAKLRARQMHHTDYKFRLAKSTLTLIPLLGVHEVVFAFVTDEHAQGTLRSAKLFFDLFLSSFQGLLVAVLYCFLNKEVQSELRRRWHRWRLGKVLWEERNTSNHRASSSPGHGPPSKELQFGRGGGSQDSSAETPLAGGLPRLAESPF
Assay: cell-based or functional assay

Row | IC50 (read off the curve) [µg/mL] | Binder
32 | ~1 | B27
